According to paper PMC2615049:

How the values were obtained:
[1] = molecular target: Bovine cationic trypsin (bovine); assay: equilibrium titration with spectrophotometric assay of residual free trypsin
[2] = molecular target: Bovine cationic trypsin (bovine); assay: ITC

Row | Kd [1] [nM] | dH (enthalpy of dissociation, ΔHd, at 25 °C, HEPES buffer) [2] [kcal/mol] | Substance
1 | 0.17 |  | C14S BPTI variant (natural protein)
2 |  | 10.6 | C14S/C38S BPTI variant (natural protein)
